Laboratory results published in patent US11344504 (MODERNATX, dated 2022).

Biological target: T1, OX40 receptor on mouse CD4+ T-cells (mouse, UniProt P47741 20-272)
T1 sequence (looked up): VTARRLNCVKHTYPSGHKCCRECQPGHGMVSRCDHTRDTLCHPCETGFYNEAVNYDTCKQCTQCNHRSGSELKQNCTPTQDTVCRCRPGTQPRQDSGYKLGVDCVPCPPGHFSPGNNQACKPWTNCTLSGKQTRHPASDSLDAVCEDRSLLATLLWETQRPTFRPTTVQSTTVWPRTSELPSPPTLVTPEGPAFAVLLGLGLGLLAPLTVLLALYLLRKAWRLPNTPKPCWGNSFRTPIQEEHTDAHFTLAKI
Assay: cell-based or functional assay

mouse IL-2 production by CD4+ T-cells co-cultured with OX40L-expressing B16F10 cells, fold over control (mock treated or non-translated mRNA): ~2 fold
B1: murine OX40L polypeptide expressed on the surface of B16F10 cells treated with mOX40L_miR-122 mRNA (ligand)
chain: MEGEGVQPLDENLENGSRPRFKWKKTLRLVVSGIKGAGMLLCFIYVCLQLSSSPAKDPPIQRLRGAVTRCEDGQLFISSYKNEYQTMEVQNNSVVIKCDGLYIIYLKGSFFQEVKIDLHFREDHNPISIPMLNDGRRIVFTVVASLAFKDKVYLTVNAPDTLCEHLQINDGELIVVQLTPGYCAPEGSYHSTVNQVPL
